The data set concerns the molecule itself. Kind of data set: native gel or EMSA; native PAGE, continuous 7.5% polyacrylamide gel, non-reducing and non-denaturing; samples in 50 mM Tris-HCl, 100 mM NaCl pH 7.4; running buffer 30 mM beta-alanine, 20 mM lactic acid pH 3.8, 180 V, 2 h, reverse polarity; markers bovine albumin and horse ferritin. For orientation: Mobility shift assays separate free from complexed probe on a gel.

B1: reduced rat peroxiredoxin 6 (Cys47-SH) (enzyme, UniProt O35244 1-224, looked up)
chain: MPGGLLLGDEAPNFEANTTIGHIRFHDFLGDSWGILFSHPRDFTPVCTTELGRAAKLAPEFAKRNVKLIALSIDSVEDHFAWSKDINAYNGAAPTEKLPFPIIDDKDRDLAILLGMLDPAEKDEKGMPVTARVVFIFGPDKKLKLSILYPATTGRNFDEILRVVDSLQLTASNPVATPVDWKKGESVMVLPTLPEEEAKQLFPKGVFTKELPSGKKYLRYTPQP
notes: Peroxiredoxin 6, rat, UniProtKB O35244, 224 amino acids as in the cDNA, without any vector derived residues; Kept reduced by 1 mM DTT in 50 mM Tris-HCl, 100 mM NaCl pH 7.4; also called reduced Prdx6; rPrdx6; source: reduced with 1 mM DTT; not shown: intein tag, C-terminal, cleaved
As a reminder, the stoichiometry N is the number of molecules, sites or subunits per partner or assembly. As to B1, the “stoichiometry N” value was determined as 2.

B2: hyperoxidized rat peroxiredoxin 6 (C47 sulfinic acid or sulfonic acid) (enzyme, UniProt O35244 1-224, looked up)
chain: MPGGLLLGDEAPNFEANTTIGHIRFHDFLGDSWGILFSHPRDFTPVCTTELGRAAKLAPEFAKRNVKLIALSIDSVEDHFAWSKDINAYNGAAPTEKLPFPIIDDKDRDLAILLGMLDPAEKDEKGMPVTARVVFIFGPDKKLKLSILYPATTGRNFDEILRVVDSLQLTASNPVATPVDWKKGESVMVLPTLPEEEAKQLFPKGVFTKELPSGKKYLRYTPQP
modifications: C47 sulfinic acid or sulfonic acid (Cys47-SO2H or Cys47-SO3H)
notes: Peroxiredoxin 6, rat, UniProtKB O35244, 224 amino acids as in the cDNA, without any vector derived residues; Cys47 hyperoxidized by H2O2; Same purified protein as m1, treated with 500 uM H2O2 in 50 mM Tris-HCl, 100 mM NaCl pH 7.4; also called hyperoxidized Prdx6; oxidized Prdx6; source: incubated with 500 uM H2O2 at room temperature for 30 min to 1 h; not shown: intein tag, C-terminal, cleaved
As to B2, the binding result is “binds”.
